In PMC8880691, “Impact of Linker Modification and PEGylation of Vancomycin Conjugates on Structure-Activity Relationships and Pharmacokinetics” (Pharmaceuticals, 2022):
Where a name gives a salt, the structure may show the parent alone.

What was measured:
B. subtilis DSM10 = experiment: microbe, parasite or virus in culture; assay type: cell-based
Experimental: (§1) The conjugates were tested in microdilution assays according to CLSI (Clinical and Laboratory Standards Institute) and EUCAST (European Committee on Antimicrobial Susceptibility Testing) guidelines on both vancomycin-sensitive and-resistant Gram-positive bacterial strains.
(§2) Antimicrobial activity assays were performed by microdilution and conducted in accordance with CLSI and EUCAST guidelines. Serial dilutions in MHB II (cation adjusted) were performed on 96-well plates using water-stock solutions of the compounds at different concentrations. Overnight cultures of bacterial strains were used to obtain bacteria in the logarithmic growth phase. Bacteria were adjusted to a McFarland corresponding to 1 × 10^8 cfu/mL. After a 1:100 dilution, the culture broth was loaded onto the 96-well polypropylene plates, resulting in a final bacterial concentration of 5 × 10^5 cfu/mL. Plates were then incubated at 37 ± 1 °C for 18–24 h. The MICs were assessed as the lowest concentration without visible growth.
Table S1. Minimum inhibitory concentration against B. subtilis DSM10.
activity. Shown is the median of at least three independent measurements (range is shown in brackets).
Compound Minimum Inhibitory Concentration
against B. subtilis DSM10 [mg/L] […]
[mg/L] [% hemolysis] [% hemolysis] [% hemolysis] […]

erythrocytes = assay type: cell-based, human
Experimental: To determine the toxicity to red blood cells and thus confirm the selectivity to bacteria, a hemoglobin release assay was carried out with VAN1, VAN2 and VAN3, as well as the PEGylated conjugate, VAN:PEG1.
To exclude lytic activity and to evaluate the toxicological potential of the conjugates, hemolysis studies were performed as previously described. Briefly, fresh heparinized blood of four male, fasted volunteers was taken, and erythrocytes were purified by centrifugation of the blood at 2500 rpm for 10 min. The supernatant was removed, and the resulting pellet was washed with PBS at least three times, until the supernatant remained clear. The conjugates were serially diluted from stock solutions (in phosphate-buffered saline) in a 96-well plate at concentrations ranging from 120 µg/mL to 0.23 µg/mL (VAN1) or 16 µg/mL to 0.03 µg/mL (VAN2, VAN3 and VAN:PEG1), resulting in a final volume of 50 µL. A solution of Triton®X-100 in PBS was used as positive control. Finally, 50 µL of the washed erythrocytes was loaded into each well. After incubation for 30 min at 37 °C, 75 µL PBS was added to each well, and the plates were centrifuged for 5 min at 4000 rpm. A total of 50 µL of the supernatants was then transferred into a new polystyrene, flat-bottom 96-well plate, and the absorbances were measured at 554 nm using a Tecan microplate reader. Hemolysis was calculated as follows: Hemolysis %=100×Asubstance−Aneg. control/ATriton−Aneg. control
The negative control was erythrocytes, treated as described but using only PBS.

[1] = Biodistribution study with excised organs, 125I-labeled compounds; assay type: in vivo, female Wistar rats; conditions: rat
Experimental: (§3) Molecular imaging and biodistribution studies were performed for VAN1 and VAN2, as well as for VAN:PEG1 and VAN:PEG2, using female Wistar rats.
To further compare the two modification strategies, the biodistribution profiles of VAN1, VAN2 and vancomycin were compared using excised organs. This study confirms significant liver accumulation in most cases.
(§4) For biodistribution and pharmacokinetic studies, compounds were radiolabeled with ^125I. The previously described method for the insertion of an additional D-tyrosine to the N-terminus of the peptide moiety was used to enable […] substitution for VAN1 and VAN2 [11]. For the PEGylated derivatives, VAN:PEG1 and VAN:PEG2, tyrosine-modified FU002y was used to synthesize the intermediate. Radiolabeling was performed using the chloramine T method as previously described. Thus, a 1 mM stock solution of the respective compound in phosphate buffer/dimethyl sulfoxide was prepared. The required amount of the radionuclide (^125I) was added to a mixture of 25 μL of the stock solution and 25 μL of phosphate buffer (0.25 mM; pH = 7.5). Purification of the labeled compounds was performed by semi-preparative HPLC. Analysis was conducted by radio HPLC (Agilent 1100 series) using a Chromolith® Performance RP-18e, 100 × 3 mm column, applying a linear gradient of 0.1% TFA in water (eluent A) to 0.1% TFA in acetonitrile (eluent B) within 5 min (flow rate, 2 mL/min; UV absorbance, λ = 214 nm; γ-detection). Animals were anaesthetized by isoflurane inhalation, and appropriate amounts of the radiolabeled conjugate dissolved in 100 µL 0.9% NaCl solution were injected into the tail vein. Cumulative scintigraphic images were taken after 10 min and 1, 2, 3, 5 and 24 h. For the biodistribution studies, animals were sacrificed at the indicated points in time. The activity of the weighed organs was measured in comparison with standards. Tissue-associated activity was related to the total injected dose (ID) and expressed as a percentage of the total injected dose per gram of tissue (%ID/g). The data were calculated afterwards to obtain the respective organ/organ or organ/blood ratios.

[2] = Molecular imaging (scintigraphy) of 125I-labeled compounds; assay type: in vivo, female Wistar rats; conditions: rat
Experimental: as §3, §4

[3] = tested on: vanB vancomycin-resistant enterococci; experiment: Microdilution assay on vancomycin-resistant strains of the vanB type; assay type: cell-based
Experimental: as §1, §2

[4] = tested on: vanC vancomycin-resistant enterococci; experiment: Microdilution assay on vancomycin-resistant strains of the vanC type; assay type: cell-based; conditions: resistant strains of the vanC type (low-level resistant)
Experimental: as §1, §2

[5] = 10 min post injection, tail vein, from %ID/g of excised organs

CC(C)C[C@H](C(=O)N[C@H]1C(=O)N[C@@H](CC(N)=O)C(=O)N[C@H]2C(=O)N[C@H]3C(=O)N[C@H](C(=O)N[C@H](C(=O)O)c4cc(O)cc(O)c4-c4cc3ccc4O)[C@H](O)c3ccc(c(Cl)c3)Oc3cc2cc(c3O[C@@H]2O[C@H](CO)[C@@H](O)[C@H](O)[C@H]2O[C@H]2C[C@](C)(N)[C@H](O)[C@H](C)O2)Oc2ccc(cc2Cl)[C@H]1O)N(C)C(=O)CCCCCCCCCCN1C(=O)CC(SC[C@H](NC(=O)[C@H](CCCNC(=N)N)NC(=O)[C@H](CCCNC(=N)N)NC(=O)[C@H](CCCNC(=N)N)NC(=O)[C@H](CCCNC(=N)N)NC(=O)[C@H](CCCNC(=N)N)NC(=O)[C@@H](N)CCCNC(=N)N)C(N)=O)C1=O (stereo partly drawn) [VAN1]
Minimum Inhibitory Concentration against B. subtilis DSM10 (B. subtilis DSM10): 1 (0.5–1) mg/L
hemolytic activity (erythrocytes): None of the compounds showed significant hemolytic activity
Ratio Kidney/Blood ([1]; in vivo): 2.22
Ratio Liver/Blood ([1]; in vivo): 10.13
Ratio Liver/Kidney ([1]; in vivo): 4.47
pharmacokinetic behavior by molecular imaging ([2]; in vivo): accumulates quickly in the liver

CC(C)C[C@H](C(=O)N[C@H]1C(=O)N[C@@H](CC(N)=O)C(=O)N[C@H]2C(=O)N[C@H]3C(=O)N[C@H](C(=O)N[C@H](C(=O)O)c4cc(O)cc(O)c4-c4cc3ccc4O)[C@H](O)c3ccc(c(Cl)c3)Oc3cc2cc(c3O[C@@H]2O[C@H](CO)[C@@H](O)[C@H](O)[C@H]2O[C@H]2C[C@](C)(N)[C@H](O)[C@H](C)O2)Oc2ccc(cc2Cl)[C@H]1O)N(C)C(=O)CCOCCOCCOCCOCCOCCOCCOCCOCCOCCOCCOCCOCCNC(=O)CCN1C(=O)CC(SC[C@H](NC(=O)[C@H](CCCNC(=N)N)NC(=O)[C@H](CCCNC(=N)N)NC(=O)[C@H](CCCNC(=N)N)NC(=O)[C@H](CCCNC(=N)N)NC(=O)[C@H](CCCNC(=N)N)NC(=O)[C@@H](N)CCCNC(=N)N)C(N)=O)C1=O (stereo partly drawn) [VAN2]
Minimum Inhibitory Concentration against B. subtilis DSM10 (B. subtilis DSM10): 2 (1–4) mg/L
overcoming the molar-resistance breakpoint (EUCAST), vanB type [3]: able to overcome the molar-resistance breakpoint
overcoming the molar-resistance breakpoint (EUCAST), vanC type [4]: able to overcome the molar-resistance breakpoint
hemolytic activity (erythrocytes): None of the compounds showed significant hemolytic activity
Ratio Kidney/Blood ([1]; in vivo): 10.09
Ratio Liver/Blood ([1]; in vivo): 9.25
Ratio Liver/Kidney ([1]; in vivo): 0.92
pharmacokinetic behavior by molecular imaging ([2]; in vivo): rapid liver accumulation can still be observed, in addition to renal elimination

CC(C)C[C@H](C(=O)N[C@H]1C(=O)N[C@@H](CC(N)=O)C(=O)N[C@H]2C(=O)N[C@H]3C(=O)N[C@H](C(=O)N[C@H](C(=O)O)c4cc(O)cc(O)c4-c4cc3ccc4O)[C@H](O)c3ccc(c(Cl)c3)Oc3cc2cc(c3O[C@@H]2O[C@H](CO)[C@@H](O)[C@H](O)[C@H]2O[C@H]2C[C@](C)(N)[C@H](O)[C@H](C)O2)Oc2ccc(cc2Cl)[C@H]1O)N(C)C(=O)CN1C(=O)CC(SC[C@H](NC(=O)[C@H](CCCNC(=N)N)NC(=O)[C@H](CCCNC(=N)N)NC(=O)[C@H](CCCNC(=N)N)NC(=O)[C@H](CCCNC(=N)N)NC(=O)[C@H](CCCNC(=N)N)NC(=O)[C@@H](N)CCCNC(=N)N)C(N)=O)C1=O (stereo partly drawn) [VAN3]
Minimum Inhibitory Concentration against B. subtilis DSM10 (B. subtilis DSM10): < 0.125 mg/L
hemolytic activity (erythrocytes): None of the compounds showed significant hemolytic activity

CN[C@H](CC(C)C)C(=O)N[C@H]1C(=O)N[C@@H](CC(N)=O)C(=O)N[C@H]2C(=O)N[C@H]3C(=O)N[C@H](C(=O)N[C@H](C(=O)O)c4cc(O)cc(O)c4-c4cc3ccc4O)[C@H](O)c3ccc(c(Cl)c3)Oc3cc2cc(c3O[C@@H]2O[C@H](CO)[C@@H](O)[C@H](O)[C@H]2O[C@H]2C[C@](C)(N)[C@H](O)[C@H](C)O2)Oc2ccc(cc2Cl)[C@H]1O [Vancomycin, vancomycin hydrochloride]
MIC (B. subtilis DSM10; Bacillus subtilis, DSM10, read-out: Minimum Inhibitory Concentration against B. subtilis DSM10): 0.25 µg/mL
Ratio Kidney/Blood [1, 5]: 2.16
Ratio Liver/Blood [1, 5]: 0.36
Ratio Liver/Kidney [1, 5]: 0.17
pharmacokinetic behavior by molecular imaging ([2]; 125I-labeled, tail vein injection, scintigraphic images 10 min to 24 h): fast renal elimination
